From patent publication US20220259593A1, “CONTROL OF MAMMALIAN GENE DOSAGE USING CRISPR” (The Regents of the University of California, priority 2019, published 2022)

B1: cr564 (nucleic acid)
guide: GTTTAAGAGCTAAGCTGGAAACAGCATAGCAAGGTTAAATAAGGCTAGTCCGTTATCAACTTGAAAAAGTGGCAGCGAGTCGCTGCT
modifications: listed as DNA, chemistry not fully specified
B2: cr058 (nucleic acid)
guide: GTTGCAGAGCTAAGCTGGAAACAGCATAGCAAGTTTAAATAAGGCTAGTCCGTTATCAACTTGAAAAAGTGGCACCGAGTCGGTGCT
modifications: listed as DNA, chemistry not fully specified
B3: cr383 (nucleic acid)
guide: GTTTAAGAGCTAAGCTGGAAACAGCATAGCAACTTTAAATAAGGCTAGTCCGTTATCAACTTGAAAAAGTGGCACCTAGTAGGTGCT
modifications: listed as DNA, chemistry not fully specified
B4: cr894 (nucleic acid)
guide: GTTTAAGAGCTAAGCTGGAAACAGCATAGCAACTTTAAATAAGGCTAGTCCGTTATCAATTTGAAAAAATGGCACCGAGTCGGTGCT
modifications: listed as DNA, chemistry not fully specified
B5: cr583 (nucleic acid)
guide: GTTTAAGAGCTAAGCTGGAAACAGCATAGCAAGTTTAAATCAGGCTAGTCCATTATCTACTTGAAAAAGTGGCACCGAGTCGGTGCT
modifications: listed as DNA, chemistry not fully specified
B6: cr942 (nucleic acid)
guide: GTTTAAGAGCTAAGCTGGAAACAGCATAGCAAGTTTAAATAAGGCTAGTCCGTTACCAACTTGAACAAGTGGCACCGAGTCGGTGCT
modifications: listed as DNA, chemistry not fully specified
B7: cr784 (nucleic acid)
guide: GTTTAAGAGCTAAGCTGGAAACAGCATAGCAAGTTTAAATAATCCTAGTTCGTTATCAACTTGAAAAAGTGGCACCGAGTCGGTGCT
modifications: listed as DNA, chemistry not fully specified
B8: cr034 (nucleic acid)
guide: GCATAAGAGCTAAGCTGGAAACAGCATAGCAAGTTTAAATAAGGCTAGTCCGTTATCAACTTGAAAAAGTGGCACCGAGTCGGTGCT
modifications: listed as DNA, chemistry not fully specified
B9: cr882 (nucleic acid)
guide: GTTTAAGAGCTAAGCTGGAAACAGCATAGCAAGTTTAAATAAGGCTAGTCCGTTATCAACTTCAAAAAGTGGCACCGAGTCGGTGCT
modifications: listed as DNA, chemistry not fully specified
B10: cr515 (nucleic acid)
guide: GTTTAAGAGCTAAGCTGTAAACAGCATAGCAAGTTTAAATAAGGCTAGTCCGTTATCAACTTGAAAAAGTGGCACCGAGTCGGTGCT
modifications: listed as DNA, chemistry not fully specified
B11: cr065 (nucleic acid)
guide: GTATACGAGCTAAGCTGGAAACAGCATAGCAAGTTTAAATAAGGCTAGTCCGTTATCAACTTGAAAAAGTGGCACCGAGTCGGTGCT
modifications: listed as DNA, chemistry not fully specified
B12: cr053 (nucleic acid)
guide: GATTCAGAGCTAAGCTGGAAACAGCATAGCAAGTTTAAATAAGGCTAGTCCGTTATCAACTTGAAAAAGTGGCACCGAGTCGGTGCT
modifications: listed as DNA, chemistry not fully specified
B13: cr817 (nucleic acid)
guide: GTTTAAGAGCTAAGCTGGAAACAGCATAGCAAGGTTAAATAGGGCTAGTCCGTTATCAACTTGATAAAGTGGCACCGAGTCGGTGCT
modifications: listed as DNA, chemistry not fully specified
B14: cr686 (nucleic acid)
guide: GTTTAAGAGCTAAGCTGGAAACAGCATAGCAACTTTAAATAAGGCTAGTCCGTTATCAACTTGAAAAAGTGGCACCGAGACGGTGCT
modifications: listed as DNA, chemistry not fully specified
B15: cr036 (nucleic acid)
guide: GCTAAAGAGCTAAGCTGGAAACAGCATAGCAAGTTTAAATAAGGCTAGTCCGTTATCAACTTGAAAAAGTGGCACCGAGTCGGTGCT
modifications: listed as DNA, chemistry not fully specified
B16: cr233 (nucleic acid)
guide: GTTTAAGAGCTAAGCTGGAAACAGCATAGCAACTTTAAATAAGGCTAGTCCGTTATCAACTTGAAAAAGTGGCACCCAGTGGGTGCT
modifications: listed as DNA, chemistry not fully specified
B17: cr033 (nucleic acid)
guide: GTTAAAAAGCTAAGCTGGAAACAGCATAGCAAGTTTAAATAAGGCTAGTCCGTTATCAACTTGAAAAAGTGGCACCGAGTCGGTGCT
modifications: listed as DNA, chemistry not fully specified
B18: cr673 (nucleic acid)
guide: GTTTAAGAGCTAAGCTGGAAACAGCATAGCAACTTTAAATAAGGCTAGTCCGTTATCAACTTGAAAAAGTGGCACCGTGTCGGTGCT
modifications: listed as DNA, chemistry not fully specified
B19: cr589 (nucleic acid)
guide: GTTTAAGAGCTAAGCTGGAAACAGCATAGCAAGTTTAAATAATGATATTCAGTTATCAACTTGAAAAAGTGGCACCGAGTCGGTGCT
modifications: listed as DNA, chemistry not fully specified
B20: cr802 (nucleic acid)
guide: GTTTAAGAGCTAAGCTGGAAACAGCATAGCAAGTTTAAATAACGCTAGTCGGTTATCAAGTTGAAAAACTGGCAGCGAGTCGCTGCT
modifications: listed as DNA, chemistry not fully specified
B21: cr921 (nucleic acid)
guide: GTTTAAGAGCTAAGCTGGAAACAGCATAGCAAAGTTAAATAAGGCTAGTCCGTTATCAACTTGAAAAAGTGGCACCGAGTCGGTGCT
modifications: listed as DNA, chemistry not fully specified
B22: cr135 (nucleic acid)
guide: GTTTAAGAGCTAAGCTGGAAACAGCATAGCAAGTTTAAATAACGCTAGTCGGTTATCAAATTGAAAAATTGGCGCCGAGTCGGCGCT
modifications: listed as DNA, chemistry not fully specified
B23: cr122 (nucleic acid)
guide: GTTTAAGAGCTAAGCTGGAAACAGCATAGCAACTTTAAATAAGGCTAGTCCGTTATTAACTTGATAAAGTGGCACCGAGTCGGTGCT
modifications: listed as DNA, chemistry not fully specified
B24: cr661 (nucleic acid)
guide: GTTTAAGAGCTAAGCTGGAAACAGCATAACAAGTTTAAATAAGGCTAGTCCCTTATCAACTTGAATAAGTGGCACCGAGTCGGTGCT
modifications: listed as DNA, chemistry not fully specified
B25: cr179 (nucleic acid)
guide: GTTTAAGAGCTAAGCTGGAAACAGCATAGCAAGGTTAAATAAGGCTAGTCCGTTATCAACTTGAAAAAGTGGCACTGAGTCAGTGCT
modifications: listed as DNA, chemistry not fully specified
B26: cr847 (nucleic acid)
guide: GTTTAAGAGCTAAGCTGGAAACAGCATAGCAAGCTTAAATAAGGCTAGTCCGTTATCAACTTGAAAAAGTGGCACCCAGTGGGTGCT
modifications: listed as DNA, chemistry not fully specified
B27: cr329 (nucleic acid)
guide: GTTTAAGAGCTAAGCTGGAAACAGCATAGCAACTTTAAATAAAGCTAGTCTGTTATCAACTTGAAAAAGTGGCACCGAGTCGGTGCT
modifications: listed as DNA, chemistry not fully specified
B28: cr056 (nucleic acid)
guide: GTGTCAGAGCTAAGCTGGAAACAGCATAGCAAGTTTAAATAAGGCTAGTCCGTTATCAACTTGAAAAAGTGGCACCGAGTCGGTGCT
modifications: listed as DNA, chemistry not fully specified
B29: cr235 (nucleic acid)
guide: GTTTAAGAGCTAAGCTGGAAACAGCATAGCAAGTTTAAATAAGGCTAGTCCGTTATCAACATGAGAATGTGGCACCGAGTCGGTGCT
modifications: listed as DNA, chemistry not fully specified
B30: cr595 (nucleic acid)
guide: GTTTAAGAGCTAAGCTGGAAACAGCATAGCAAGTTTAAATAACGCTAGTCCGTTATCAACTTGAAAAAGTGGCACCGAGTCGGTGCT
modifications: listed as DNA, chemistry not fully specified

Test system: K562 CRISPRi cells
Test: Constant region variant library pooled growth screen, K562
Type: cell-based, human
Settings: sgRNA constant region variants; activity relative to the original, un-modified constant region cr995
Summary of the method: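 Growth screens in K562 CRISPRi cells were harvested 4-8 days post-selection at >2000× library coverage. Each variant's phenotype was referenced to the unmodified constant region with the same targeting sequence.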

Row | Molecule | Mean relative activity
1 | B1 | −0.001952
2 | B2 | −0.003151
3 | B3 | −0.005505
4 | B4 | −0.003408
5 | B5 | −0.01013
6 | B6 | 1.087
7 | B7 | −0.01213
8 | B8 | −0.007191
9 | B9 | 1.027
10 | B10 | 1.027
11 | B11 | −0.003148
12 | B12 | −0.003704
13 | B13 | −0.002514
14 | B14 | −0.004019
15 | B15 | −0.005679
16 | B16 | −0.003511
17 | B17 | −0.004656
18 | B18 | −0.005072
19 | B19 | −0.005108
20 | B20 | −0.005377
21 | B21 | −0.002203
22 | B22 | −0.00878
23 | B23 | −0.003408
24 | B24 | −0.01151
25 | B25 | −0.004493
26 | B26 | −0.002682
27 | B27 | −0.007607
28 | B28 | −0.009512
29 | B29 | 1.027
30 | B30 | −0.002984
